± gives the standard deviation.
Test: protein stability index of a GFP-peptide fusion (GPS, HEK-293T) (PSI 1-6); higher = more stable
[1] = treatment: DMSO, c terminus: a fixed tail appended
[2] = treatment: MLN4924 1 uM, 8 h, c terminus: a fixed tail appended
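Also: 24-mer peptide tiles fused after GFP, lentivirally expressed, FACS-sorted into six equal bins by GFP/DsRed ratio, decoded by Illumina sequencing, PSI is the read-weighted mean bin number.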

Row | Sequence | protein stability index [1] | protein stability index [2] | protein stability index (treatment: DMSO, c terminus: native) | protein stability index (treatment: MLN4924 1 uM, 8 h, c terminus: native)
1 | CHLNGIVHRDLKPENLLLASKSKG [CAMK2D] | 3.52 ± 0.36 | 3.56 ± 0.19 | – | –
2 | CICGFTHDDGYMICCDKCSVWQHI [KMT2E] | 3.19 ± 0.39 | 3.29 ± 0.41 | – | –
3 | CIFDKFECVWNGSDSVIMTGSYNN [PPP2R2B] | 2.27 ± 0.34 | 2.21 ± 0.14 | – | –
4 | CIVSPDRPGVQDAALIEAIQDRLS [VDR] | 3.55 ± 0.14 | 3.65 ± 0.25 | – | –
5 | CLESTKLLADLKKCGDLECEALIN [MIA2] | 3 ± 0.32 | 3.25 ± 0.14 | – | –
6 | CLGLSYDGLLGDNQIMPKAGLLII [MAGEA3] | 3.12 ± 0.68 | 2.73 ± 0.61 | – | –
7 | CPIIRIPNRFLRGHRPPPARSGHR [KLHDC10] | 2.68 ± 0.69 | 3.32 ± 0.85 | – | –
8 | CPKYKFISCPTCRRETVLFTDYGL [RNF208] | 2.28 ± 0.25 | 2.25 ± 0.21 | – | –
9 | CPLLLGSVMAIERCIGVTKPIFHS [PTGFR] | 2.78 ± 0.87 | 2.77 ± 0.68 | – | –
10 | CQQEQLFQTRQEMTSMSAELKMRA [LRRC45] | 3.03 ± 0.42 | 3.1 ± 0.21 | – | –
11 | CWNTSYCSIKCQQEHWHAEHKRTC [ZMYND11] | 2.31 ± 0.39 | 2.32 ± 0.22 | – | –
12 | DALLGIDDLETMPDDLLTTLDDTC [ATF4] | 5.17 ± 0.16 | 5.05 ± 0.34 | – | –
13 | DDGKLGATGPMGMRGFKGDRGPKG [SCARA5] | 5.02 ± 0.36 | 5.07 ± 0.13 | – | –
14 | DDIEEKTPISNEVEMESEEQIAER [KMT2E] | 5.8 ± 0.16 | 5.66 ± 0.26 | – | –
15 | DDWEDDYDYPEEEQLSGAGYRVSA [EID1] | 4.9 ± 0.29 | 5.04 ± 0.21 | – | –
16 | DEAQGACLQQKQVVAEAQTRVSQL [LRRC45] | 5.23 ± 0.12 | 5.09 ± 0.31 | – | –
17 | DEDSEPEREVRAKNGRVDSEDRRS [USP39] | 5.62 ± 0.33 | 5.517 ± 0.016 | – | –
18 | DEGDEPMPIPEDLSTTSGGQQSSK [IKZF1] | 5.42 ± 0.65 | 5.56 ± 0.28 | – | –
19 | DEGGITKQPPVTQSKTASDKSPST [FBF1] | 5.44 ± 0.21 | 5.56 ± 0.19 | – | –
20 | DELVGLPFSSHTYSQASELPTDAV [FBXO34] | 4.95 ± 0.18 | 4.81 ± 0.081 | – | –
21 | DGSVVRDFEHRPKAPVVECSITGD [WDR88] | 5.4 ± 0.21 | 5.32 ± 0.16 | – | –
22 | DHLGWVARGTGSGEDSSTSSSTPL [RTN2] | 4.73 ± 0.18 | 4.54 ± 0.25 | – | –
23 | DHTSEAVRNLFGLDPSSGAIHVLG [PCDHGC5] | 3.16 ± 0.24 | 3.09 ± 0.19 | – | –

Row | Sequence | protein stability index [1] | protein stability index [2] | protein stability index (treatment: DMSO, c terminus: native) | protein stability index (treatment: MLN4924 1 uM, 8 h, c terminus: native)
24 | DILWEHLEQMIKENQEKTEDQYEE [ETS2] | 5.02 ± 0.21 | 5.22 ± 0.2 | – | –
25 | DISPPIFRRGEKLRVISDEGGWWK [SLA] | 3.02 ± 0.71 | 2.87 ± 0.42 | – | –
26 | DLASAAAKQIMEETYKMEFMYSGV [INTS4] | 2.58 ± 0.52 | 2.5 ± 0.16 | – | –
27 | DLFEKKGYTFDYAYDWVGRPIPTP [CSNK1G1] | 2.26 ± 0.58 | 2.37 ± 0.29 | – | –
28 | DLLNNKLVTLPVSFAQLKNLKWLD [LRRC59] | 2.24 ± 0.23 | 2.17 ± 0.31 | – | –
29 | DMRNSATFKSFEDRVGTIKSKVVG [TPD52L2] | 3.24 ± 0.16 | 3.61 ± 0.23 | – | –
30 | DNPSVLSGPMQAALQAAAHASVDI [SMG5] | 4.05 ± 0.14 | 4.29 ± 0.26 | – | –
31 | DPACYEFLWGPRALVETSYVKVLH [MAGEA3] | 2.12 ± 0.2 | 2.12 ± 0.36 | – | –
32 | DPIVRPLWWIAPGDETAHRIDSQF [MYORG] | 3.23 ± 0.18 | 3.24 ± 0.27 | – | –
33 | DPNKMAFGCEECGKKYNTMLGYKR [PLAGL1] | 3.07 ± 0.49 | 3.46 ± 0.64 | – | –
34 | DPVLAKVAGDCLDEKQCKQCANKV [LRRC59] | 4.99 ± 0.42 | 5.07 ± 0.09 | – | –
35 | DQEQGSSFQMSEGSEAAVIPLDLG [FAM189A2] | 5.34 ± 0.35 | 5.48 ± 0.17 | – | –
36 | DQSDEGSSSQKEESPSTLQVLPDS [MAGEA10] | 5.66 ± 0.21 | 5.56 ± 0.16 | – | –
37 | DRKARKPLVEKKRRARINESLQEL [HES6] | 4.37 ± 0.22 | 4.71 ± 0.13 | – | –
38 | DRSTEPDRLQVFHKRAIMPYGVYK [ATE1] | 3.44 ± 0.24 | 3.47 ± 0.26 | – | –
39 | DSCVLTGPDDSLWDKHACPAYVGP [TRIB3] | 3.65 ± 0.33 | 3.62 ± 0.19 | – | –
40 | DSGASAITRESHTHRDRPSQQQPL [CSNK1G1] | 5.09 ± 0.15 | 5.15 ± 0.17 | – | –
41 | DSLTSLQWLQEFSILNAKAPALPP [FOXJ1] | 2.26 ± 0.043 | 2.19 ± 0.075 | – | –
42 | DSSEEKHLEEPGETQNAFLNERKQ [CHGB] | 5.5 ± 0.41 | 5.41 ± 0.36 | – | –
43 | DSVSVNDIDLSLYIPRDVDETGIT [ZC3H15] | 3.76 ± 0.15 | 4.36 ± 0.11 | – | –
44 | DTDKWIQKAPMTTVRGLHCMCTVG [KLHL13] | 2.32 ± 0.25 | 2.81 ± 0.35 | – | –
45 | DTYDSVYLHPNSYSCACLASGSVL [HDAC6] | 2.21 ± 0.15 | 2.3 ± 0.25 | – | –
46 | DVAGNLDYKALSYVITHGEEKEE [MYL5] | – | – | 2.62 ± 0.7 | 3.56 ± 1.1

Row | Sequence | protein stability index [1] | protein stability index [2] | protein stability index (treatment: DMSO, c terminus: native) | protein stability index (treatment: MLN4924 1 uM, 8 h, c terminus: native)
47 | DVALVLTVLLEEETLEASVGPRET [TOR1AIP2] | 2.49 ± 0.51 | 2.27 ± 0.31 | – | –
48 | DYIRRYLPVLRGFPAKYIYDPWNA [CRY1] | 2.53 ± 0.5 | 2.16 ± 0.2 | – | –
49 | DYLDLDKMSLYSEADSGYGSYGGF [TRIM9] | 2.46 ± 0.51 | 2.77 ± 0.24 | – | –
50 | EAAEGKSLGSALKPGEGRSALFAG [TRIM29] | 4.87 ± 0.17 | 4.76 ± 0.19 | – | –
51 | EAANLLIPAVGSSLSEALDLIESD [MYBL2] | 4.81 ± 0.14 | 4.72 ± 0.2 | – | –
52 | EAAPRQCIELYFDEKYSIEPSWEC [NETO1] | 2.48 ± 0.2 | 2.73 ± 0.57 | – | –
53 | EALAATWEQPWASEVFGPERMPPS [PXN] | 3.33 ± 0.27 | 3.5 ± 0.47 | – | –
54 | EALGLEAEGAVPETQTLTGWSKGF [RHOBTB1] | 3.79 ± 0.098 | 4.05 ± 0.27 | – | –
55 | EALKHPWICQRSTVASMMHRQETV [CAMK2D] | 2.81 ± 0.28 | 2.73 ± 0.25 | – | –
56 | EALVRTVLRAGDREDITEPAICAL [CTNNB1] | 3.45 ± 0.29 | 3.6 ± 0.51 | – | –
57 | EANNLAAAASAKDIYYNNMEEVCG [ATL3] | 4.69 ± 0.26 | 4.68 ± 0.18 | – | –
58 | EAVLHCHQMGVVHRDLKPENLLLA [CAMK2A] | 2.64 ± 0.27 | 2.58 ± 0.38 | – | –
59 | ECGKAFSQSSYLSQHRRIHSGEKP [ZNF232] | 3.57 ± 0.28 | 3.61 ± 0.15 | – | –
60 | ECYDPRTQQWTAICPLKERRFGAV [GAN] | 2.69 ± 0.18 | 2.62 ± 0.3 | – | –
61 | EDEDKSEPEQTGADAAEDEEVDVT [RBBP5] | 5.66 ± 0.28 | 5.73 ± 0.31 | – | –
62 | EDSDVEMVEDDSRKEMTAACTPRR [MLH1] | 5.54 ± 0.3 | 5.67 ± 0.18 | – | –
63 | EDVRIFFYQSPYDSEQVPQALRRL [NCF4] | 2.79 ± 0.31 | 2.98 ± 0.4 | – | –
64 | EDWLSHALSRKKSQGLAREQHAGT [FBF1] | 3.9 ± 0.23 | 4.04 ± 0.14 | – | –
65 | EEDKRRKGEEVTPISAIRHEGKTD [EPB41L3] | 5.59 ± 0.23 | 5.66 ± 0.13 | – | –
66 | EEIRGGGLLKYCSLLVHGFKPACM [TENT5D] | 3.11 ± 0.5 | 2.35 ± 0.67 | – | –
67 | EELAPVGTAHIPPTMHLESPALQV [ZNF449] | 4.18 ± 0.27 | 4.33 ± 0.091 | – | –
68 | EEMWTFRGKIHAFRGQILGFWEEE [CCDC70] | 2.15 ± 0.41 | 2.35 ± 0.26 | – | –
69 | EERVRVLQGVRLSENVVNRMKEPS [CHCHD6] | 4.6 ± 0.51 | 4.64 ± 0.19 | – | –

Row | Sequence | protein stability index [1] | protein stability index [2] | protein stability index (treatment: DMSO, c terminus: native) | protein stability index (treatment: MLN4924 1 uM, 8 h, c terminus: native)
70 | EFISSTKRPYAKELETVDFKDKLE [SERPINB5] | 3.98 ± 0.24 | 4.32 ± 0.13 | – | –
71 | EFPEARIFEETLNILIYETPRGPD [KCTD13] | 2.48 ± 0.15 | 2.5 ± 0.44 | – | –
72 | EGAQRDRFPGRKQPGVHEEPVLKK [C22orf31] | 5.15 ± 0.3 | 5.17 ± 0.31 | – | –
73 | EGTNGQLDYSFGDHTSEAVRNLFG [PCDHGC5] | 3.89 ± 0.13 | 3.9 ± 0.32 | – | –
74 | EGVISVSEDRTVRVWLKRDSGQYW [WDFY2] | 2.17 ± 0.2 | 2.3 ± 0.12 | – | –
75 | EHQYRLPPMGKAFQELAGKELCAM [SPDEF] | 3.19 ± 0.26 | 3.23 ± 0.098 | – | –
76 | EIANEDRKHALERFEQEAVAVDSN [CCDC89] | 5.01 ± 0.42 | 5.31 ± 0.16 | – | –
77 | EIELQAQHNLRYSLENTLTESEAR [KRT33B] | 4.7 ± 0.2 | 4.48 ± 0.18 | – | –
78 | EIIRKQVSATKAEAEKDGVKVPTT [UBE2R2] | 4.84 ± 0.37 | 4.7 ± 0.25 | – | –
79 | EILSESVVPDVRSVVTTARMQVLK [SMARCE1] | 2.87 ± 0.56 | 2.54 ± 0.38 | – | –
80 | EINPPPHTMEEEEDDDWGEDTTEE [EIF5] | 5.52 ± 0.28 | 5.34 ± 0.48 | – | –
81 | EKKGLHEKALQVLVDQSKKANSPL [VPS39] | 4.65 ± 0.21 | 4.67 ± 0.18 | – | –
82 | EKLLERQGQAKTPDSMFLAMLAVV [CDK11A] | 1.95 ± 0.21 | 2.2 ± 0.55 | – | –
83 | EKMALDPYTELRKQPLRKYVTPSD [EFHC1] | 4.03 ± 0.29 | 3.95 ± 0.064 | – | –
84 | ELDEPQHEMVAHRHRQEVLCKEMV [ZSCAN9] | 4.72 ± 0.24 | 4.76 ± 0.26 | – | –
85 | ELKTKLTKLEAEIVTLRHVLAAKE [TPD52L3] | 3.44 ± 0.27 | 3.64 ± 0.23 | – | –
86 | ELNGHTQKITAIITFPSLESCEEK [WDR41] | 3.1 ± 0.29 | 3.42 ± 0.42 | – | –
87 | ELPNIKREISETEAKALLKERQKK [TFE3] | 3.26 ± 0.7 | 4.19 ± 0.57 | – | –
88 | ELSRIVLMRHGMEKIWRPNRVFSL [RAB40C] | 2.37 ± 0.37 | 2.63 ± 0.41 | – | –
89 | EMFTKPVVILPCQHNLCRKCASDI [TRIM55] | 2.96 ± 0.3 | 2.83 ± 0.47 | – | –
